Assay [1] concerns the target T1, cynomolgus monkey TG2 (cynomolgus monkey, UniProt A0A2K5VXI8 1-687).
T1 construct: Bought recombinant protein; also called cynomogulus monkey TG2; cyano TG2
T1 sequence: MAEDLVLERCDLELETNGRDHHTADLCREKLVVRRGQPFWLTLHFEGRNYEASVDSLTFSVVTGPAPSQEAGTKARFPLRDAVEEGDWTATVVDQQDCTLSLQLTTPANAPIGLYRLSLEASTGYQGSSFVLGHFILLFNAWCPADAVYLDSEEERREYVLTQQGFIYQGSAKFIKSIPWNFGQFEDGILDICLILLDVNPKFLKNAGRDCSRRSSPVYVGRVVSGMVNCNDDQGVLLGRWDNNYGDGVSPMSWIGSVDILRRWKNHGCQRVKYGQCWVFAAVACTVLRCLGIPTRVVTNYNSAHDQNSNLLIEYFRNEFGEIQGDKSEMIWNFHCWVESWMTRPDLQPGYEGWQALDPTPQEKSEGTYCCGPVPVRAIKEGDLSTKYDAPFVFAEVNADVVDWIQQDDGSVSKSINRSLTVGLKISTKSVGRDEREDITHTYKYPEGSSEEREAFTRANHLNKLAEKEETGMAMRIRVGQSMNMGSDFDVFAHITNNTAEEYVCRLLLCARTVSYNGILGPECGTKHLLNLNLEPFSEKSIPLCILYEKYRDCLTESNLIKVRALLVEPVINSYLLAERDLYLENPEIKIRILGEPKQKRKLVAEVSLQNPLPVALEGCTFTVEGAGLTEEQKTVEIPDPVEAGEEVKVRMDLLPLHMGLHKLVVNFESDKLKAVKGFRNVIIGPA
Kind of assay: ELISA on immobilised cynomolgus monkey TG2; r2 0.9766; EC50 95% confidence range 0.04047 to 0.09246 [panel B]. On the procedure: (§1) Antibody binding to human and cynomolgus monkey TG2 was determined in an ELISA assay. Clear polystyrene "Maxisorp" 96-well plates (Nunc) were coated with 50 ng purified human or cynomogulus monkey TG2 in 50 µl 0.05 M carbonate-bicarbonate buffer pH 9.6 at 4° C. overnight. Control wells were coated with 50 µl 100 µg/ml bovine serum albumin (BSA). Plates were washed 3× with 300 µl phosphate-buffered saline pH7.4 (PBS) containing 0.1% Tween 20 (PBST) and blocked with 300 µl 3% w/v Marvel skimmed milk in PBS for 1 hour at room temperature. After 3× wash with PBST, 50 µl protein-A purified chimeric or humanised anti-TG2 antibodies or human IgG1 kappa […] control antibody or CUB7402 (Abcam) were serially diluted 4-fold from a top concentration of 50 nM in PBS, and added to the plate in duplicate. […] After 3× washes with PBST, the plates were developed with 50 µl TMB substrate (Sigma) for 5 min at room temperature before stopping the reaction with 25 µl 0.5M H2SO4 and reading absorbance at 450 nm in a microtiter plate reader (BioTek EL808). Dose response curves were analysed and EC50 values and other statistical parameters determined using a 4-parameter logistical fit of the data (GraphPad Prism).
(In an ELISA, binding on a coated surface is turned into a signal by an enzyme label.)

The target in assay [2] is T2, human transglutaminase type 2 (TG2) (human, UniProt P21980 1-687).
T2 construct: Recombinant full-length human TG2 (Zedira; cat; T002 in the Biacore work); Also used here for the endogenous TG2 of HepG2 lysate and HK-2 cells; also called hTG2; rhTG2
T2 sequence: T1 sequence with D4E, R157Q, S177N, S413H, T421I, H528Y, I542V
Briefly: SPR (Biacore T200), antibody captured on anti-human IgG1 Fc chip, TG2 injected; calcium condition not marked in the row. On the procedure: (§2) Recombinant cynomolgus monkey TG2 was obtained from Trenzyme. Surface plasmon resonance (SPR) was measured on a Biacore T200 instrument (GE Healthcare). CM5 chips (GE Healthcare cat. no.: BR-1006-68) were coated with monoclonal mouse anti-human IgG1 (Fc) (MAH) antibody (GE Healthcare cat. no.: BR-1008-39) by amine-coupling as described in the manufacturers instructions. HBS-EP+ buffer (0.01 M HEPES, 0.15 M NaCl, 3 mM EDTA, 0.05% v/v Surfactant P20) and HBS-P+ buffer (0.01 M HEPES, 0.15 M NaCl, 0.05% Surfactant P20) were purchased from GE Healthcare as 10× stocks (cat. nos.: BR-1006-69 and BR-1006-71). Calcium Chloride solution was obtained from Sigma Aldrich (cat. no.:21115).
(§3) The method employed to determine the affinity of the anti-TG2 antibodies involved the capture of the chimeric or humanised antibodies on a MAH coated CM5 chip, followed by the injection of a series of TG2 samples in running buffer. The running buffer was 1×HBS-P+ containing 1 mM CaCl_2, or 1×HBS-EP+ for calcium-free experiments. Antibody capture was carried out for a contact time of 120 seconds at a flow rate of 10 μl/min resulting in the capture of approximately 40-80 RU. TG2 was injected over the immobilised antibody at concentrations ranging from 25 nM to 400 nM with a contact time up to 600 seconds at a flow rate of 30 μl/min. Dissociation of TG2 was typically measured for up to 5400 seconds (1.5 hours). Regeneration of the chip was then performed using 3 M MgCl_2, for a contact time of 60 seconds at a flow rate of […], followed by a 300 s stabilisation period before the next sample. For each of human and cynomolgus monkey TG2, at least 5 injections at a variety of concentrations were performed in at least two separate experiments.
(§4) Kinetic data were exported from the Biacore T200 Evaluation Software and analysed using GraphPad Prism, where the association phases and dissociation phases were analysed separately using a one phase association model and one-phase exponential decay model respectively. Association rates ($kon$) were calculated for each curve individually, and dissociation rates ($koff$) values from the long dissociation phase data collected. Where $koff$ values were calculated to be $<1\times10^-5$ s^-1, values were set at 1×10^-5 for analysis, as rates slower than this could not be estimated accurately.
Background: Surface plasmon resonance follows binding to a sensor surface in real time, without labels.

Assay [3] addresses T1, cynomolgus monkey TG2. The assay is described as above. The procedure:
as §2, §3, §4

The target of assay [4] is T1, cynomolgus monkey TG2. Briefly: cell-based or functional assay.
Assay [5] has as its target T2, human transglutaminase type 2 (TG2). Briefly: cell-based or functional assay.
Assay [6] shares this target. Briefly: ELISA on immobilised human TG2; r2 0.9794; EC50 95% confidence range 0.01199 to 0.03342 [panel B]. On the procedure:
as §1

Assay [7] shares this target. Briefly: ELISA on immobilised human TG2; r2 0.9771; EC50 95% confidence range 0.04636 to 0.08491 [panel A]. On the procedure:
as §1

The target is the same in assay [8]. Briefly: cell-based or functional assay. The source holds these as a separate data set.
Assay [9] has the same target. Briefly: cell-based or functional assay. This is another data set of the same source.
Assay [10] deals with T1, cynomolgus monkey TG2. Briefly: ELISA on immobilised cynomolgus monkey TG2; r2 0.9361; EC50 95% confidence range 0.04198 to 0.1296 [panel A]. On the procedure:
as §1

Assay [11] addresses T2, human transglutaminase type 2 (TG2). Kind of assay: ELISA on immobilised human TG2; r2 0.9792; EC50 95% confidence range ND [panel A]. On the procedure: as §1
Assay [12] has as its target T1, cynomolgus monkey TG2. Kind of assay: ELISA on immobilised cynomolgus monkey TG2; r2 0.9329; EC50 95% confidence range 0.03522 to 0.08934 [panel A]. On the procedure: as §1

Residue numbers refer to the chain shown, from its start.

B1: hAB004 (hAB001AE) humanised AB1 antibody (antibody, V domains shown)
VH: EVQLLESGGGLVQPGGSLRLSCAASGFTFSSSAMSWVRQAPGKGLEWVSTISVGGGKTYYPDSVKGRFTISRDNSKNTLYLQMNSLRAEDTAVYYCAKLISLYWGQGTLVTVSS
VL: EIVLTQSPSSLSASVGDRVTITCKASQDINSYLTWYQQKPGKAPKLLIYRTNRLFDGVPSRFSGSGSGTDFFFTISSLQPEDFGTYYCLQYDDFPYTFGGGTKLEIK
notes: they were captured by anti-human IgG1 (Fc); also called Heavy Chain version RHA with Light Chain version RKE
A word on the EC50: it is the concentration needed to bring the measured effect to its halfway point. Usually Kd stands for the equilibrium constant for the complex coming apart. What is called koff is a measure of how fast the partners let go of each other. In general, kon refers to a measure of how fast the partners come together. B1: the figures for the concentration giving a half-maximal response (EC50) (in the assay with cynomolgus monkey TG2 [1]; in assay [6]) were 0.0612 nM and 0.02 nM, respectively. The Kd in assay [2] was determined as 0.12 nM; with cynomolgus monkey TG2 [3] it was 0.11 nM. Also, the koff in assay [2] is 2.4e-05 s⁻¹; with cynomolgus monkey TG2 [3], 1.8e-05 s⁻¹. The figures for the kon (in assay [2]; in the assay with cynomolgus monkey TG2 [3]) were 200000 M⁻¹ s⁻¹ and 160000 M⁻¹ s⁻¹, respectively. In addition, the “IC50 of enzymatic inhibition, dansylated lysine incorporation into N,N-dimethylated casein [panel B]” value with cynomolgus monkey TG2 [4] was found to be 7.85 nM. Further, in [5], the “IC50 of enzymatic inhibition, dansylated lysine incorporation into N,N-dimethylated casein [continued), panel D]” value was found to be 3.85 nM.

B2: hBB001BB humanised BB7 antibody (antibody, V domains shown)
VH: B1 VH with F27I, T28I, S49A, V53S, G56R, K57S, I70V, N74S, L102P
VL: DIKMTQSPSSLSASVGDRVTITCKASQDINSYLTWFQQKPGKAPKTLIYLTNRLMDGVPSRFSGSGSGQEFLLTISSLQPEDFATYYCLQYVDFPYTFGQGTKVEIK
notes: BB is read as heavy chain hBB001HB (BB7_RHB) with kappa chain hBB001KB (BB7_RKB)
As for B2, the Kd is under 0.04 nM in assay [2] and 0.14 nM in the assay with cynomolgus monkey TG2 [3]. Moreover, the koff in [2] was under 1e-05 s⁻¹; with cynomolgus monkey TG2 [3], 3.7e-05 s⁻¹. For the same molecule, the values for the kon (in [2]; with cynomolgus monkey TG2 [3]) were 240000 M⁻¹ s⁻¹ and 270000 M⁻¹ s⁻¹, respectively. For the same molecule, the EC50 in [7] is 0.0627 nM; with cynomolgus monkey TG2 [10] it was 0.0738 nM. In assay [8], the “IC50 of enzymatic inhibition, dansylated lysine incorporation into N,N-dimethylated casein [panel B]” value amounted to 0.985 nM. Also, the “IC50, extracellular TG activity of HK-2 cells, biotin cadaverine incorporation into fibronectin” value in assay [9] amounted to 4.9 nM.

B3: hBB001AA humanised BB7 antibody (antibody, V domains shown)
VH: B1 VH with V53S, G56R, K57S, L102P
VL: B2 VL with K3Q, T46S, Q69T, E70D, L72F
notes: captured by anti-human IgG1 (Fc); also called hBB01AA
As for B3, the 50% effective concentration (EC50) in assay [11] was about 0.0474 nM; in the assay with cynomolgus monkey TG2 [12], 0.0561 nM. For the same molecule, the on-rate (kon) in assay [2] was 270000 M⁻¹ s⁻¹; in the assay with cynomolgus monkey TG2 [3], 300000 M⁻¹ s⁻¹. Further, the dissociation constant (Kd) with cynomolgus monkey TG2 [3] was under 0.03 nM. Moreover, the off-rate constant (koff) in the assay with cynomolgus monkey TG2 [3] was under 1e-05 s⁻¹. Further, the “IC50 of enzymatic inhibition, dansylated lysine incorporation into N,N-dimethylated casein [panel A]” value with cynomolgus monkey TG2 [4] was found to be 8.51 nM; in assay [8], 5.99 nM. In [9], the “IC50, extracellular TG activity of HK-2 cells, biotin cadaverine incorporation into fibronectin” value came out at 19.8 nM.

These data come from patent US10005846 (LIFEARC, dated 2018).
